For assay [1], the target named is T1, natural human CCL21 (secreted and isolated from transfected HEK-293T cells) (human, UniProt O00585 24-134).
T1 sequence: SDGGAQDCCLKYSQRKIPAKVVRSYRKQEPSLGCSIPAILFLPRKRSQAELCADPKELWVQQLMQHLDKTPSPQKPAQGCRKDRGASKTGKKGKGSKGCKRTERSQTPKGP
The assay can be described thus: cell-based or functional assay.

Assay [2] concerns the target T2, human CCL21 (human, UniProt O00585 24-134).
T2 sequence: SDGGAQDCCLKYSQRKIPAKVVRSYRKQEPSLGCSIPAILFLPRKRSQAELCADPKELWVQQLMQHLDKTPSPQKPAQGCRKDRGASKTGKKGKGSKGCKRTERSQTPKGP
As to the kind of experiment: cell-based or functional assay.

Assay [3] concerns the target T3, cynomolgus monkey CCL21 (cynomolgus monkey, UniProt Q8HYP5 24-131 (rhesus entry)).
T3 sequence: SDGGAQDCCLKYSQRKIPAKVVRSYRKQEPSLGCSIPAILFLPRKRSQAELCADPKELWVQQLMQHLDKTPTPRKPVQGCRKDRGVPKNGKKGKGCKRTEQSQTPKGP
The assay can be described thus: cell-based or functional assay.

Assay [4] concerns the target CCL21 of the four chemotaxis assays (recombinant human, recombinant cynomolgus monkey, natural human). The assay can be described thus: cell-based or functional assay.
For assay [5], the target named is T3, cynomolgus monkey CCL21. As to the kind of experiment: SPR (Biacore T100), antibody captured on protein A, CCL21 as analyte, 1:1 model, two experiments.
Assay [6] concerns the target T2, human CCL21. As to the kind of experiment: SPR (Biacore T100), antibody captured on protein A, CCL21 as analyte, 1:1 model, three experiments.

From patent publication WO2011080050A2 (dated 2011) come the findings set out here.

B1: MOR08378_g5-51_g2a2 (antibody, human IgG1, lambda, V domains shown)
VH: EVQLVQSGAEVKKPGESLKISCKGSGYSFNNYWISWVRQMPGKGLEWMGIIDPTNSQTTYSPSFQGQVTISADKSISTAYLQWSSLKASDTAMYYCARDGYPIFDYWGQGTLVTVSS
VL: QSALTQPASVSGSPGQSITISCTGTSSDLGGYNYVSWYQQHPGKAPKLMIYDVNYRPSGVSNRFSGSKSGNTASLTISGLQAEDEADYYCSSYTYYSNSGVFGGGTKLTVLG
Take B1: in assay [1], the “% inhibition of migration, natural hCCL21, H9 cells, 1:1 molar ratio (4th cell)” value (“% inhibition … 1:1 molar ratio (4th cell)” for short) came to 64%; the “% inhibition of migration, natural hCCL21, H9 cells, IgG at 2uM (4th cell)” value (shortened to “% inhibition of migration … at 2uM (4th cell)”) was 100%; the “IC50, inhibition of natural hCCL21-mediated migration of H9 cells” value was found to be 69 nM. In addition, in the assay with human CCL21 [2], the “% inhibition of migration, recombinant hCCL21, H9 cells, 1:1 molar ratio (1st cell)” value (shortened to “% inhibition … 1:1 molar ratio (1st cell)”) was determined as 87%; the “% inhibition of migration, recombinant hCCL21, H9 cells, IgG at 2uM (1st cell)” value (“% inhibition of migration … at 2uM (1st cell)” below) was found to be 100%; the “% inhibition of migration, recombinant hCCL21, primary human T cells, 1:1 molar ratio (2nd cell)” value (“% inhibition … 1:1 molar ratio (2nd cell)” for short) is 100%; the “% inhibition of migration, recombinant hCCL21, primary human T cells, IgG at 2uM (2nd cell)” value (“% inhibition of migration … at 2uM (2nd cell)” below) stood at 100%. For the same molecule, the “IC50, inhibition of recombinant hCCL21-mediated migration of H9 cells” value with human CCL21 [2] turned out to be 49.7 nM. Besides, in the assay with cynomolgus monkey CCL21 [3], the “% inhibition of migration, recombinant cCCL21, H9 cells, 1:1 molar ratio (3rd cell)” value (from here on “% inhibition … 1:1 molar ratio (3rd cell)”) was found to be 100% and the “% inhibition of migration, recombinant cCCL21, H9 cells, IgG at 2uM (3rd cell)” value (shortened to “% inhibition of migration … at 2uM (3rd cell)”) was 100%.

B2: MOR06935_g3-23_g3j (antibody, V domains shown)
VH: EVQLLESGGGLVQPGGSLRLSCAASGFTFNSYSMSWVRQAPGKGLEWVSAISMEGYSKSYADSVKGRFTISRDNSKNTLYLQMNSLRAEDTAVYYCARGYGYYFDVWGQGTLVTVSS
VL: SYELTQPLSVSVALGQTARITCGGDSIGSQYASWYQQKPGQAPVLVIYDDNERPSGIPERFSGSNSGNTATLTISRAQAGDEADYYCGSWDSNPTHVFGGGTKLTVLG
notes: also called QBP359; FW repaired germlined MOR06935
Take B2: in assay [4], the % inhibition of CCL21 mediated chemotaxis at 1:1 molar ratio, large scale batch, four assays lay in the range of 81 to 100% and the IC50, inhibition of CCL21 mediated chemotaxis, large scale batch, four assays lay in the range of 11 to 45 nM. In the assay with cynomolgus monkey CCL21 [5], the Kd was found to be 0.026 nM and the kon is 9.1e+07 M⁻¹ s⁻¹. For the same molecule, in assay [1], the “% inhibition … 1:1 molar ratio (4th cell)” value came to 77% and the “% inhibition of migration … at 2uM (4th cell)” value amounted to 100%. Further, in the assay with human CCL21 [2], the “% inhibition … 1:1 molar ratio (1st cell)” value was 61%; the “% inhibition of migration … at 2uM (1st cell)” value was determined as 100%; the “% inhibition … 1:1 molar ratio (2nd cell)” value came out at 86%; the “% inhibition of migration … at 2uM (2nd cell)” value stood at 100%. In addition, in the assay with human CCL21 [2], the “IC50, inhibition of CCL21-mediated calcium mobilization, human CCL21 on CHO-K1 cells with cynomolgus monkey CCR7” value worked out at 252 nM and the “IC50, inhibition of CCL21-mediated calcium mobilization, human CCL21 on CHO-K1 cells with human CCR7” value worked out at 341 nM. Also, in the assay with cynomolgus monkey CCL21 [3], the “% inhibition … 1:1 molar ratio (3rd cell)” value stood at 96%; the “% inhibition of migration … at 2uM (3rd cell)” value came out at 100%; the “IC50, inhibition of CCL21-mediated calcium mobilization, cynomolgus monkey CCL21 on CHO-K1 cells with cynomolgus monkey CCR7” value was 62 nM; the “IC50, inhibition of CCL21-mediated calcium mobilization, cynomolgus monkey CCL21 on CHO-K1 cells with human CCR7” value was determined as 211 nM. Further, in the assay with human CCL21 [6], binding was put at a Kd of 0.03 nM and the kon turned out to be 6.8e+07 M⁻¹ s⁻¹.

B3: MOR08389_g3-23_g3j (antibody, human IgG1, lambda, V domains shown)
VH: EVQLLESGGGLVQPGGSLRLSCAASGFTFNSYSMSWVRQAPGKGLEWVSAISMEGYSKSYADSVKGRFTISRDNSKNTLYLQMNSLRAEDTAVYYCARGYGYYFDVWGQGTLVTVSS
VL: SYELTQPLSVSVALGQTARITCGGDSIGSQYASWYQQKPGQAPVLVIYDDNERPSGIPERFSGSNSGNTATLTISRAQAGDEADYYCSSWDMDAVNVFGGGTKLTVLG
Regarding B3, in assay [1], the “% inhibition … 1:1 molar ratio (4th cell)” value was 82%; the “% inhibition of migration … at 2uM (4th cell)” value was determined as 100%; the “IC50, inhibition of natural hCCL21-mediated migration of H9 cells” value is 34 nM. For the same molecule, in the assay with human CCL21 [2], the “% inhibition … 1:1 molar ratio (1st cell)” value came out at 94%; the “% inhibition of migration … at 2uM (1st cell)” value came to 94%; the “% inhibition … 1:1 molar ratio (2nd cell)” value stood at 100%; the “% inhibition of migration … at 2uM (2nd cell)” value was found to be 100%. The “IC50, inhibition of recombinant hCCL21-mediated migration of H9 cells” value with human CCL21 [2] came to 54.1 nM. Also, in the assay with cynomolgus monkey CCL21 [3], the “% inhibition … 1:1 molar ratio (3rd cell)” value stood at 100% and the “% inhibition of migration … at 2uM (3rd cell)” value was 100%.

B4: MOR08382_g3-23_gL6 (antibody, human IgG1, kappa, V domains shown)
VH: EVQLLESGGGLVQPGGSLRLSCAASGFTFSSYWLNWVRQAPGKGLEWVSYISNQGDDTSYADSVKGRFTISRDNSKNTLYLQMNSLRAEDTAVYYCARDYQYIGDSFDIWGQGTLVTVSS
VL: EIVLTQSPATLSLSPGERATLSCRASQYVSYVSLAWYQQKPGQAPRLLIYDASNRATGIPARFSGSGSGTDFTLTISSLEPEDFAVYYCQQYDDLSYTFGQGTKVEIKR
Turning to B4, in assay [1], the “% inhibition … 1:1 molar ratio (4th cell)” value is 70%; the “% inhibition of migration … at 2uM (4th cell)” value was found to be 100%; the “IC50, inhibition of natural hCCL21-mediated migration of H9 cells” value is 66 nM. Also, in the assay with human CCL21 [2], the “% inhibition … 1:1 molar ratio (1st cell)” value was determined as 97%; the “% inhibition of migration … at 2uM (1st cell)” value was determined as 97%; the “% inhibition … 1:1 molar ratio (2nd cell)” value amounted to 100%; the “% inhibition of migration … at 2uM (2nd cell)” value came out at 100%. In addition, the “IC50, inhibition of recombinant hCCL21-mediated migration of H9 cells” value in the assay with human CCL21 [2] came to 23.7 nM. Further, in the assay with cynomolgus monkey CCL21 [3], the “% inhibition … 1:1 molar ratio (3rd cell)” value worked out at 100% and the “% inhibition of migration … at 2uM (3rd cell)” value came to 100%.
